Test results: patent US20100248359A1 (Chugai, published 2010)
Positions count from the first letter of the chain named. Names and notes keep the numbering of the source. Where two headings read alike, the source gives them in different places. One block for each binder: values may come before it.

Tests used:
[1] = target: T1, GC-3 (GST fusion of GPC3 Ala524 to Lys563) (human, UniProt P51654 524-563); experiment: Western blotting of GST-fusion proteins
T1 construct: not shown: GST as encoded by pGEX-4T-3 (Amersham), N-terminal to the GPC3 peptide
T1 chain: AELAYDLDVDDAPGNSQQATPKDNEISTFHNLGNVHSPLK

[2] = target: T2, soluble form of GPC3 core protein (human, UniProt P51654 25-563); experiment: ELISA on plate coated with soluble GPC3 core protein
T2 construct: not shown: His tag added to the C-terminus

full-length human GPC3 [3] = target: T3, full-length human GPC3 (human, UniProt P51654 25-554); experiment: flow cytometry, antibody at 5 µg/mL, HepG2 cells
T3 construct: On CHO (DXB11) or SK-HEP-1 (SK-03) transfectants; also used here for the GPC3 on the hepatoma lines HepG2 and HuH-7; also called human glypican 3
T3 sequence (P51654 25-554 limits assumed): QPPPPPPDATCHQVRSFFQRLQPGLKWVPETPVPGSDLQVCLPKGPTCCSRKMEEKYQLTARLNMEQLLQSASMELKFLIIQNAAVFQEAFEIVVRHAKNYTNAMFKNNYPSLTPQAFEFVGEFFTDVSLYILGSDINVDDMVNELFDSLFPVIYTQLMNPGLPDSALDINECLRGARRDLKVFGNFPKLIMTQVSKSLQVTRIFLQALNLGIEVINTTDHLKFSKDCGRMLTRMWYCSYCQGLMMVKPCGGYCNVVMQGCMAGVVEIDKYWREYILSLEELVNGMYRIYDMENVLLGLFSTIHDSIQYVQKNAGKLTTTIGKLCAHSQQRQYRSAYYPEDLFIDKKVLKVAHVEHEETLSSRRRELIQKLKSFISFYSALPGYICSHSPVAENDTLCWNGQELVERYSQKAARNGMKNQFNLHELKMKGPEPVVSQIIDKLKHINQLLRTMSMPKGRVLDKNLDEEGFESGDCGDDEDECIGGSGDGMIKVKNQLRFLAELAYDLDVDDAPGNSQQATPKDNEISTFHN

full-length human GPC3 [4] = target: T3, full-length human GPC3; experiment: flow cytometry, antibody at 5 µg/mL, CHO cells expressing human GPC3 (column CHO/human GPC3)
full-length human GPC3 [5] = target: T3, full-length human GPC3; experiment: flow cytometry, antibody at 5 µg/mL, HuH-7 cells
[6] = target: T2, soluble form of GPC3 core protein; experiment: competitive ELISA on coated soluble GPC3 core protein; labelled competitor biotin-M10D2;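 further: Biotin-labelled antibody added as 10 µL at 10 µg/mL for 1 h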
[7] = target: T2, soluble form of GPC3 core protein; experiment: ELISA on plate coated with soluble GPC3 core protein; remark: listed apart in the source
[8] = target: T1, GC-3 (GST fusion of GPC3 Ala524 to …); experiment: Western blotting of GST-fusion proteins, reducing SDS-PAGE
full-length human GPC3 [9] = target: T3, full-length human GPC3; experiment: flow cytometry, antibody at 5 µg/mL, HepG2 cells; remark: listed apart in the source
[10] = target: T2, soluble form of GPC3 core protein; experiment: competitive ELISA on coated soluble GPC3 core protein; labelled competitor biotin-M5B9;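 further: Biotin-labelled antibody added as 10 µL at 10 µg/mL for 1 h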
full-length human GPC3 [11] = target: T3, full-length human GPC3; experiment: BIACORE; the form of GPC3 used is not given
[12] = target: T2, soluble form of GPC3 core protein; experiment: competitive ELISA on coated soluble GPC3 core protein; labelled competitor biotin-M1E7;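 further: Biotin-labelled antibody added as 10 µL at 10 µg/mL for 1 h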
[13] = target: T2, soluble form of GPC3 core protein; experiment: competitive ELISA on coated soluble GPC3 core protein; labelled competitor biotin-M18D4;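 further: Biotin-labelled antibody added as 10 µL at 10 µg/mL for 1 h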
full-length human GPC3 [14] = target: T3, full-length human GPC3; experiment: flow cytometry, antibody at 5 µg/mL, CHO cells expressing human GPC3 (column CHO/human GPC3); remark: listed apart in the source
[15] = target: T2, soluble form of GPC3 core protein; experiment: competitive ELISA on coated soluble GPC3 core protein; labelled competitor biotin-M11F1;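 further: Biotin-labelled antibody added as 10 µL at 10 µg/mL for 1 h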
full-length human GPC3 [16] = target: T3, full-length human GPC3; experiment: flow cytometry, antibody at 5 µg/mL, HuH-7 cells; remark: listed apart in the source
[17] = target: T2, soluble form of GPC3 core protein; experiment: competitive ELISA on coated soluble GPC3 core protein; labelled competitor biotin-M6B1;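 further: Biotin-labelled antibody added as 10 µL at 10 µg/mL for 1 h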
[18] = target: T2, soluble form of GPC3 core protein; experiment: competitive ELISA on coated soluble GPC3 core protein; labelled competitor biotin-M3C11;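 further: Biotin-labelled antibody added as 10 µL at 10 µg/mL for 1 h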
[19] = target: T2, soluble form of GPC3 core protein; experiment: competitive ELISA on coated soluble GPC3 core protein; labelled competitor biotin-L9G11;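 further: Biotin-labelled antibody added as 10 µL at 10 µg/mL for 1 h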
[20] = target: T2, soluble form of GPC3 core protein; experiment: ELISA on plate coated with soluble GPC3 core protein; antibody from COS7 culture supernatant [middle left panel]
[21] = target: T2, soluble form of GPC3 core protein; experiment: ELISA on GPC3 (the legend says only GPC3; the filing's ELISA uses plates coated with soluble GPC3 core protein) [lower panel]
[22] = target: T2, soluble form of GPC3 core protein; experiment: ELISA on plate coated with soluble GPC3 core protein; antibody from COS7 culture supernatant [upper right panel]
[23] = target: T2, soluble form of GPC3 core protein; experiment: ELISA on plate coated with soluble GPC3 core protein; antibody from COS7 culture supernatant [lower left panel]
[24] = target: T2, soluble form of GPC3 core protein; experiment: ELISA on plate coated with soluble GPC3 core protein; antibody from COS7 culture supernatant [upper left panel]

B1: GC199 (antibody, V domains shown)
VH: QIQLEQSGPELKKPGETVKISCKASGYIFRDYSMHWVKQAPGKGLKWMGWINTETGEPTYADDFKGRFAFSLETSASTAYLQINNLKNEDTATYFCTSLYWGQGTLVTVSA
VL: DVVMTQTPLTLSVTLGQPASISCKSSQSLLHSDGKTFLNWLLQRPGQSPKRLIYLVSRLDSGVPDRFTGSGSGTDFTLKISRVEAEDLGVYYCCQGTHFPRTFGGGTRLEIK
notes: Mouse monoclonal from a mouse immunized with GC-3; also called GC199 antibody
binding result [1]: binds
EC50 [2]: 100 pM
FACS X-mode value of the histogram (full-length human GPC3 [3]): 12.2
FACS X-mode value of the histogram (full-length human GPC3 [4]): 15.5
FACS X-mode value of the histogram (full-length human GPC3 [5]): 2.4

B2: M3C11 (antibody, human IgG1, kappa, V domains shown)
VH: EVQLVESGGGLVKPGGSLKLSCAASGFTFSRYAMSWVRQIPEKILEWVAAIDSSGGDTYYLDTVKDRFTISRDNANNTLHLQMRSLRSEDTALYYCVRQGGAYWGQGTLVTVSA
VL: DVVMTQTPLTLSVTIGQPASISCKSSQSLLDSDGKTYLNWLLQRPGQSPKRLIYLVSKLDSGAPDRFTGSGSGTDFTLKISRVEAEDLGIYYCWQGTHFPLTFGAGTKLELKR
notes: Mouse monoclonal from hybridoma
Inhibition of the binding of indicated biotin-Mab to sGPC3 core (%) [6]: 39.9%
EC50 [7]: 120 pM
binding result [8]: no binding
FACS X-mode value of the histogram (full-length human GPC3 [9]): 59
Inhibition of the binding of indicated biotin-Mab to sGPC3 core (%) [10]: 9.1%
Kd (full-length human GPC3 [11]): 300 pM
koff (full-length human GPC3 [11]): 6.5e-05 s⁻¹
kon (full-length human GPC3 [11]): 250000 M⁻¹ s⁻¹
Inhibition of the binding of indicated biotin-Mab to sGPC3 core (%) [12]: 96.2%
Inhibition of the binding of indicated biotin-Mab to sGPC3 core (%) [13]: 10.3%
FACS X-mode value of the histogram (full-length human GPC3 [14]): 83
Inhibition of the binding of indicated biotin-Mab to sGPC3 core (%) [15]: 12%
FACS X-mode value of the histogram (full-length human GPC3 [16]): 9
Inhibition of the binding of indicated biotin-Mab to sGPC3 core (%) [17]: 11.2%
Inhibition of the binding of indicated biotin-Mab to sGPC3 core (%) [18]: 96.8%
Inhibition of the binding of indicated biotin-Mab to sGPC3 core (%) [19]: 33.1%

B3: GC179 (antibody, V domains shown)
VH: EVQLVETGGGLVQPEGSLKLSCAASGFSFNINAMNWVRQAPGKGLEWVARIRSESNNYATYYGDSVKDRFTISRDDSQNMLYLQMNNLKTEDTAIYYCVREVTTSFAYWGQGTLVTVSA
VL: DIVMTQSAPSVPVTPGESVSISCKSSKSLLHSNGNTYLNWFLQRPGQSPQLLIYWMSNLASGVPDRFSGSGSGTAFTLRISRVEAEDVGVYYCMQHIEYPFTFGTGTKLEIK
notes: Mouse monoclonal from a mouse immunized with GC-3
binding result [1]: binds
EC50 [2]: 5610 pM
FACS X-mode value of the histogram (full-length human GPC3 [3]): 6.5
FACS X-mode value of the histogram (full-length human GPC3 [4]): 7.1
FACS X-mode value of the histogram (full-length human GPC3 [5]): 3.8

B4: G34P (antibody, V domains shown)
VH: QVQLVQSGAEVKKPGASVKVSCKASGYTFTDYEMHWVRQAPGQGLEWMGALDPKTGDTAYSQKFKGRVTLTADKSTSTAYMELSSLTSEDTAVYYCTRFYSYTYWGQGTLVTVSS
VL: DVVMTQSPLSLPVTPGEPASISCRSSQSLVHSNPNTYLHWYLQKPGQSPQLLIYKVSNRFSGVPDRFSGSGSGTDFTLKISRVEAEDVGVYYCSQNTHVPPTFGQGTKLEIK
notes: also called modified humanized GC33 (H chain ver.k, L chain G34P)
EC50 (read off the curve) [20]: ~0.03 µg/mL

B5: GC33 (antibody, V domains shown)
VH: QVQLQQSGAELVRPGASVKLSCKASGYTFTDYEMHWVKQTPVHGLKWIGALDPKTGDTAYSQKFKGKATLTADKSSSTAYMELRSLTSEDSAVYYCTRFYSYTYWGQGTLVTVSA
VL: B4 VL with S7T, T14S, P15L, E17D, P18Q, P34G, Q50K, V88L, Y92F, Q105S
notes: Mouse monoclonal from a mouse immunized with GC-3; also called GC33 antibody
binding result [1]: binds
EC50 [2]: 240 pM
FACS X-mode value of the histogram (full-length human GPC3 [3]): 52
FACS X-mode value of the histogram (full-length human GPC3 [4]): 82.7
FACS X-mode value of the histogram (full-length human GPC3 [5]): 8.4

B6: GC33 mouse H chain variable region / humanized L chain ver.a (antibody, V domains shown)
VH: B5 VH
VL: B4 VL with P34G
notes: also called mouse/ver.a
EC50 (read off the curve) [21]: ~0.03 µg/mL

B8: modified humanized GC33 (H chain ver.k, L chain G34E) (antibody, human IgG1, V domains shown)
VH: B4 VH
VL: B4 VL with P34E
notes: COS7 supernatant; human IgG1/kappa
EC50 (read off the curve) [22]: ~0.02 µg/mL

B10: G34V (antibody, V domains shown)
VH: B4 VH
VL: B4 VL with P34V
notes: also called modified humanized GC33 (H chain ver.k, L chain G34V)
EC50 (read off the curve) [23]: ~0.02 µg/mL

B13: modified humanized GC33 (H chain ver.k, L chain G34A) (antibody, human IgG1, V domains shown)
VH: B4 VH
VL: B4 VL with P34A
notes: as for B8
EC50 (read off the curve) [24]: ~0.02 µg/mL

B14: humanized GC33 H chain ver.h / L chain ver.a (antibody, V domains shown)
VH: B4 VH with Q6E
VL: B4 VL with P34G
EC50 (read off the curve) [21]: ~0.03 µg/mL

B17: humanized GC33 H chain ver.i / L chain ver.a (antibody, V domains shown)
VH: B4 VH with K74E, T87R
VL: B4 VL with P34G
EC50 (read off the curve) [21]: ~0.03 µg/mL

B18: modified humanized GC33 (H chain ver.k, L chain G34D) (antibody, human IgG1, V domains shown)
VH: B4 VH
VL: B4 VL with P34D
notes: as for B8
EC50 (read off the curve) [24]: ~0.02 µg/mL

Now from value to binder:

EC50 (read off the curve) [20]: ~0.02 µg/mL
B7: modified humanized GC33 (H chain ver.k, L chain G34N) (antibody, human IgG1, V domains shown)
VH: B4 VH
VL: B4 VL with P34N
notes: as for B8

EC50 (read off the curve) [20]: ~0.02 µg/mL
B9: modified humanized GC33 (H chain ver.k, L chain G34Q) (antibody, human IgG1, V domains shown)
VH: B4 VH
VL: B4 VL with P34Q
notes: as for B8

EC50 (read off the curve) [22]: ~0.02 µg/mL
B11: modified humanized GC33 (H chain ver.k, L chain G34H) (antibody, human IgG1, V domains shown)
VH: B4 VH
VL: B4 VL with P34H
notes: as for B8

EC50 (read off the curve) [23]: ~0.02 µg/mL
B12: modified humanized GC33 (H chain ver.k, L chain G34W) (antibody, human IgG1, V domains shown)
VH: B4 VH
VL: B4 VL with P34W
notes: as for B8

EC50 (read off the curve) [22]: ~0.02 µg/mL
B15: modified humanized GC33 (H chain ver.k, L chain G34F) (antibody, human IgG1, V domains shown)
VH: B4 VH
VL: B4 VL with P34F
notes: as for B8

EC50 (read off the curve) [23]: ~0.02 µg/mL
B16: modified humanized GC33 (H chain ver.k, L chain G34Y) (antibody, human IgG1, V domains shown)
VH: B4 VH
VL: B4 VL with P34Y
notes: as for B8
